Measurements reported in patent US20230210968A1, “RIBONUCLEOPROTEIN APPROACH TO BOOST THE STING SIGNALING FOR CANCER IMMUNOTHERAPY” (MASSACHUSETTS INSTITUTE OF TECHNOLOGY, priority 2020, published 2023).
Where a chain is given by its changes, count along the chain named. Numbers in names are those of the source.

Columns and labels:
[1] = tested on: STINGΔTM-induced STING signaling in HEK293T cells; experiment: Interferon activity in HEK293T cells pretreated with chemical inhibitors, then cGAMP-STINGΔTM; type: cell-based, human; details: increasing inhibitor concentrations before cGAMP-STINGΔTM treatment
Procedure: For the HEK293T cells, a reporter derivative from this cell line was first generated by transfecting pGL4.45[luc2P/ISRE/Hygro] (Promega company) and stably selected in 200 μg/ml hydromycin. The pGL4.45[luc2P/ISRE/Hygro] vector contains five copies of an interferon-stimulated response element (ISRE) that drives transcription of the luciferase reporter gene luc2P (Photinus pyralis). luc2p is a synthetically-derived luciferase sequence with humanized codon optimization that is designed for high expression and reduced anomalous transcription. The luc2P gene contains hPEST, a protein destabilization sequence, which allows luc2P protein levels to respond more quickly than those of […] to induction of transcription. […] Commercial transfection reagent TranslT-X2TM was used to help transfection (2 μg pDNA mixed with 4 μL TranslT-X2TM in 250 μL Opti-MEM media for each 6-well). […] Transfected cells were also harvested for western blotting.

[2] = tested on: MC38 cells; experiment: Therapeutic treatment study, MC38 colon cancer model; type: in vivo, C57BL/6 mice; details: intratumoral, 100 μg protein and/or 2.5 μg cGAMP, days 7, 14, 21, 28, 35
Procedure: A therapeutic treatment study with an MC38 colon cancer model was then performed. […] The tumor size and survival were monitored on a schedule similar to that of the prophylactic study.

[3] = target: the molecule itself; experiment: FPLC size exclusion, cGAMP titration; self-association
[4] = Transmission electron microscopy particle size; details: in PBS
[5] = tested on: intracellular trafficking of the tetrameric complex (EEA1, TBK1, Golgi apparatus, LAMP1); experiment: Immunocytochemistry / confocal microscopy of intracellular trafficking; type: cell-based
Procedure: Immunocytochemistry: Transfection and immune staining were performed in Millicell® EZ chamber slides (Millipore Sigma, Temecula, Calif., USA). […] Cells were imaged with an Inverted Olympus IX83 microscope equipped with a Hamamatsu ImagEM high sensitivity camera at the Swanson Biotechnology Center (MIT).

[6] = target: the molecule itself; experiment: FPLC size exclusion with cGAMP; self-association
[7] = tetrameric complex, 6 h post-transfection

Molecule: C[C@H]1CCC/C=C/[C@@H]2C[C@H](O)C[C@H]2[C@H](O)/C=C/C(=O)O1 [BFA, brefeldin A]
- interferon activity after inhibitor pretreatment [1]: insignificant effect

Molecule: CO/C1=C\C(C)=C\[C@@H](C)[C@@H](O)[C@@H](C)C/C(C)=C/C=C/[C@H](OC)[C@@H]([C@@H](C)[C@@H](O)[C@H](C)[C@@]2(O)C[C@@H](O)[C@H](C)[C@@H](C(C)C)O2)OC1=O [BafA1, bafilomycin A1]
- interferon activity after inhibitor pretreatment [1]: decreasing activity observed with increasing concentrations

Molecule: CCN(CC)CCCC(C)Nc1ccnc2cc(Cl)ccc12 (stereo not shown) [CQ, chloroquine]
- interferon activity after inhibitor pretreatment [1]: increased interferon activity

Molecule: O=C(NCCCNc1nc(Nc2cccc(CN3CCOCC3)c2)ncc1C1CC1)C1CCC1 [MRT, MRT67307]
- interferon activity after inhibitor pretreatment [1]: decrease with increasing concentrations

Molecule: Nc1nc2c(ncn2[C@@H]2O[C@@H]3COP(=O)(O)O[C@H]4[C@@H](O)[C@H](n5cnc6c(N)ncnc65)O[C@@H]4COP(=O)(O)O[C@@H]2[C@@H]3O)c(=O)[nH]1 [cGAMP, 2′3′ cyclic guanosine monophosphate-adenosine monophosphate]
- tumor burden [2]: significantly reduced tumor burden

B1: mSTINGΔTM (mouse STING amino acids 138-378) (other)
chain: LTPAEVSAVCEEKKLNVAHGLAWSYYIGYLRLILPGLQARIRMFNQLHNNMLSGAGSRRLYILFPLDCGVPDNLSVVDPNIRFRDMLPQQNIDRAGIKNRVYSNSVYEILENGQPAGVCILEYATPLQTLFAMSQDAKAGFSREDRLEQAKLFCRTLEEILEDVPESRNNCRLIVYQEPTDGNSFSLSQEVLRHIRQEEKEEVTMNAPMTSVAPPPSVLSQEPRLLISGMDQPLPLRTDLI
notes: Runs as a dimer (~60 kDa) without cGAMP and as a tetramer (~120 kDa) with cGAMP; Entries with this molecule as both partners are self-association; also called mouse STINGΔTM; recombinant transmembrane-deficient STING
- binding result [3]: binds
- particle diameter (TEM) [4]: ~14 nm
- co-localization with LAMP1 ([5]; 24 h post-transfection): co-localization with Lysosomal Associated Membrane Protein 1 (LAMP1) at 24 h post-transfection
- co-localization with Early Endosome Antigen 1 (EEA1) [5, 7]: limited co-localization
- co-localization with TBK1 [5, 7]: co-localization of TBK1 with STINGΔTM in punctate structures
- co-localization with the Golgi apparatus ([5]; with or without the addition of BFA): no significant evidence of STINGΔTM co-localization with the Golgi apparatus

B2: mSTINGΔTM R237A-Y239A (other)
chain: B1 chain with R100A, Y102A
notes: Expressed His-tagged; also called STINGΔTM R238A/Y240A; R237A/Y239A mutant STINGΔTM
- binding result [3]: binds

B3: mouse STINGΔTM Q272A/A276Q (other)
chain: B1 chain with Q135A, A139Q
notes: Expressed His-tagged; also called Q272A/A276Q mutant; functional double mutant at the tetramer interface
- binding result [6]: binds
